Experimental findings from US20150164996A1 (Sanofi, published 2015) are described below.

What all share (experiment): cell-based or functional assay
Experiment [1] deals with human glucagon receptor (human) (UniProt P47871).
Experiment [2] addresses human GLP-1 receptor (human) (UniProt P43220).
In experiment [3] the target is T1, human GLP-1 receptor (human, UniProt P43220 24-463).
The target in experiment [4] is T2, human GIP receptor (human, UniProt P48546 22-466).
T2 sequence (looked up): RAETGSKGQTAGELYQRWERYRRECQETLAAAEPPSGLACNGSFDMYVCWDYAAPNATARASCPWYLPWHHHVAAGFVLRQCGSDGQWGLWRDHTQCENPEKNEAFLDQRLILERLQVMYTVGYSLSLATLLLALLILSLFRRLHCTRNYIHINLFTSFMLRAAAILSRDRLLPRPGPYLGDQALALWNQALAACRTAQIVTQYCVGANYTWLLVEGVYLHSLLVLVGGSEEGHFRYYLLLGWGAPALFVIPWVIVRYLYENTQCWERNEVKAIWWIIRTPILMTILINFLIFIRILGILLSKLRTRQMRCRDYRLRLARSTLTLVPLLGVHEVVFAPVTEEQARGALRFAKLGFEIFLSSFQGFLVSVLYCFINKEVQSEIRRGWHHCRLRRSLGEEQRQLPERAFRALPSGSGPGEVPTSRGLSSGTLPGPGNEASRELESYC

For another experiment, the target named is human glucagon receptor (human, UniProt P47871 26-477).
human glucagon receptor, sequence (P47871 26-477): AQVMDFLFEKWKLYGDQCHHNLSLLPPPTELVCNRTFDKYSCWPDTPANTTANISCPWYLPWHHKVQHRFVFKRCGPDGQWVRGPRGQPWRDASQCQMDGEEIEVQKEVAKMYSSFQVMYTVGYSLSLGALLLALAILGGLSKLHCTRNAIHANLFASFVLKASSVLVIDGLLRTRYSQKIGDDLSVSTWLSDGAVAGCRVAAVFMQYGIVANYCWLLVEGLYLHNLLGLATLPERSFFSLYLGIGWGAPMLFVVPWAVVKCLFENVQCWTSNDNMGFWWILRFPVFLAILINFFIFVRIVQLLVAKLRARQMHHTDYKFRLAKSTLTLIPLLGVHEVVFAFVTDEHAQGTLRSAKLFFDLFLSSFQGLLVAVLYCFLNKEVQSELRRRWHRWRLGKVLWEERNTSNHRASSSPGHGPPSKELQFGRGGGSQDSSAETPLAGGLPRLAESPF
Experiment [5] addresses T1, human GLP-1 receptor. This is another data set of the same source.
Target sequence in this assay (P43220 24-463): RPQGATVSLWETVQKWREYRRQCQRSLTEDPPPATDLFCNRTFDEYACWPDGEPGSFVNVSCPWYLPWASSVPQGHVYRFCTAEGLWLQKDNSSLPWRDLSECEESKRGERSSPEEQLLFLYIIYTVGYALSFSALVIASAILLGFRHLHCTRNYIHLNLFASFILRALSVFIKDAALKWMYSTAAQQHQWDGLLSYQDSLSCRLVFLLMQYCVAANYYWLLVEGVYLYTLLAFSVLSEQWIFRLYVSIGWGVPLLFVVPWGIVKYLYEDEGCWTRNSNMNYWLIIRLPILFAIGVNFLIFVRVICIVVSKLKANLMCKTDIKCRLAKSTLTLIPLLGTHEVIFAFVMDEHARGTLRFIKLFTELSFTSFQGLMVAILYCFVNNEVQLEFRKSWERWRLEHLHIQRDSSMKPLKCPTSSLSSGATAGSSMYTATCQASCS
The target in experiment [6] is T2, human GIP receptor. The source holds these as a separate data set.

Where two headings read alike, the source gives them in different places. Square brackets hold non-standard residues; d marks the D form. Ends that are not written are not given here. Aib = CC(C)(N)C(=O)O A value given as a limit tells only on which side of the number the result lay.

human GLP-1 receptor (human), sequence (P43220 24-463): as above
human glucagon receptor (human), sequence (P47871 26-477): as the sequence (P47871 26-477) above

In the case of exendin-4 (peptide), the EC50 hGlucagon R [pM] (cAMP formation, HTRF, HEK-293 cells) in experiment [1] is above 1e+07 pM. Also, in experiment [2], the EC50 hGLP-1 R [pM] (cAMP formation, HTRF, HEK-293 cells) stood at 0.4 pM.

B1: SEQ ID NO: 8 (peptide)
peptide: Y[Aib]EGTFTSDLSKLLEKEAVRLFIEWLKAGGPSSGAPPPS-NH2
modifications: N-terminus assumed
SMILES: CC[C@H](C)[C@H](NC(=O)[C@H](Cc1ccccc1)NC(=O)[C@H](CC(C)C)NC(=O)[C@H](CCCNC(=N)N)NC(=O)[C@@H](NC(=O)[C@H](C)NC(=O)[C@H](CCC(=O)O)NC(=O)[C@H](CCCCN)NC(=O)[C@H](CCC(=O)O)NC(=O)[C@H](CC(C)C)NC(=O)[C@H](CC(C)C)NC(=O)[C@H](CCCCN)NC(=O)[C@H](CO)NC(=O)[C@H](CC(C)C)NC(=O)[C@H](CC(=O)O)NC(=O)[C@H](CO)NC(=O)[C@@H](NC(=O)[C@H](Cc1ccccc1)NC(=O)[C@@H](NC(=O)CNC(=O)[C@H](CCC(=O)O)NC(=O)C(C)(C)NC(=O)[C@@H](N)Cc1ccc(O)cc1)[C@@H](C)O)[C@@H](C)O)C(C)C)C(=O)N[C@@H](CCC(=O)O)C(=O)N[C@@H](Cc1c[nH]c2ccccc12)C(=O)N[C@@H](CC(C)C)C(=O)N[C@@H](CCCCN)C(=O)N[C@@H](C)C(=O)NCC(=O)NCC(=O)N1CCC[C@H]1C(=O)N[C@@H](CO)C(=O)N[C@@H](CO)C(=O)NCC(=O)N[C@@H](C)C(=O)N1CCC[C@H]1C(=O)N1CCC[C@H]1C(=O)N1CCC[C@H]1C(=O)N[C@@H](CO)C(N)=O
Take B1: the “EC50 hGLP-1 R [pM] (cAMP formation, HTRF, HEK-293 cells)” value (from here on “EC50 hGLP-1 R [pM]”) in the experiment with human GLP-1 receptor [3] turned out to be 1.2 pM. The “EC50 hGIP R [pM] (cAMP formation, HTRF, HEK-293 cells)” value (“EC50 hGIP R [pM]” for short) with human GIP receptor [4] came out at 2.3 pM. In addition, in the experiment with human glucagon receptor, the “EC50 hGLUC R [pM] (cAMP formation, HTRF, HEK-293 cells)” value (shortened to “EC50 hGLUC R [pM]”) was 79000 pM.

B2: SEQ ID NO: 9 (peptide)
peptide: Y[Aib]EGTFTSDLSKLLDKEAVRLFIEWLKAGGPSSGAPPPS-NH2
modifications: N-terminus assumed
SMILES: CC[C@H](C)[C@H](NC(=O)[C@H](Cc1ccccc1)NC(=O)[C@H](CC(C)C)NC(=O)[C@H](CCCNC(=N)N)NC(=O)[C@@H](NC(=O)[C@H](C)NC(=O)[C@H](CCC(=O)O)NC(=O)[C@H](CCCCN)NC(=O)[C@H](CC(=O)O)NC(=O)[C@H](CC(C)C)NC(=O)[C@H](CC(C)C)NC(=O)[C@H](CCCCN)NC(=O)[C@H](CO)NC(=O)[C@H](CC(C)C)NC(=O)[C@H](CC(=O)O)NC(=O)[C@H](CO)NC(=O)[C@@H](NC(=O)[C@H](Cc1ccccc1)NC(=O)[C@@H](NC(=O)CNC(=O)[C@H](CCC(=O)O)NC(=O)C(C)(C)NC(=O)[C@@H](N)Cc1ccc(O)cc1)[C@@H](C)O)[C@@H](C)O)C(C)C)C(=O)N[C@@H](CCC(=O)O)C(=O)N[C@@H](Cc1c[nH]c2ccccc12)C(=O)N[C@@H](CC(C)C)C(=O)N[C@@H](CCCCN)C(=O)N[C@@H](C)C(=O)NCC(=O)NCC(=O)N1CCC[C@H]1C(=O)N[C@@H](CO)C(=O)N[C@@H](CO)C(=O)NCC(=O)N[C@@H](C)C(=O)N1CCC[C@H]1C(=O)N1CCC[C@H]1C(=O)N1CCC[C@H]1C(=O)N[C@@H](CO)C(N)=O
B2: in the experiment with human GLP-1 receptor [3], the “EC50 hGLP-1 R [pM]” value was determined as 2.2 pM. Also, in the experiment with human GIP receptor [4], the “EC50 hGIP R [pM]” value stood at 13 pM. For the same molecule, the “EC50 hGLUC R [pM]” value with human glucagon receptor was 149000 pM.

Turning to YAEGTFTSDVSIYLEGQAAKEFIAWLVKGR (ends and bridges not checked) [Tyr(1)Ile(12)-GLP1], the “EC50 hGLP-1 R [pM]” value in the experiment with human GLP-1 receptor [5] came to 5 pM. Moreover, the “EC50 hGIP R [pM]” value with human GIP receptor [6] was 3660 pM.

B3: SEQ ID NO: 11 (peptide)
peptide: Y[Aib]EGTFTSDLSILLEEEAVRLFIEWLKAGGPSSGAPPPS-NH2
modifications: N-terminus assumed
SMILES: CC[C@H](C)[C@H](NC(=O)[C@H](CO)NC(=O)[C@H](CC(C)C)NC(=O)[C@H](CC(=O)O)NC(=O)[C@H](CO)NC(=O)[C@@H](NC(=O)[C@H](Cc1ccccc1)NC(=O)[C@@H](NC(=O)CNC(=O)[C@H](CCC(=O)O)NC(=O)C(C)(C)NC(=O)[C@@H](N)Cc1ccc(O)cc1)[C@@H](C)O)[C@@H](C)O)C(=O)N[C@@H](CC(C)C)C(=O)N[C@@H](CC(C)C)C(=O)N[C@@H](CCC(=O)O)C(=O)N[C@@H](CCC(=O)O)C(=O)N[C@@H](CCC(=O)O)C(=O)N[C@@H](C)C(=O)N[C@H](C(=O)N[C@@H](CCCNC(=N)N)C(=O)N[C@@H](CC(C)C)C(=O)N[C@@H](Cc1ccccc1)C(=O)N[C@H](C(=O)N[C@@H](CCC(=O)O)C(=O)N[C@@H](Cc1c[nH]c2ccccc12)C(=O)N[C@@H](CC(C)C)C(=O)N[C@@H](CCCCN)C(=O)N[C@@H](C)C(=O)NCC(=O)NCC(=O)N1CCC[C@H]1C(=O)N[C@@H](CO)C(=O)N[C@@H](CO)C(=O)NCC(=O)N[C@@H](C)C(=O)N1CCC[C@H]1C(=O)N1CCC[C@H]1C(=O)N1CCC[C@H]1C(=O)N[C@@H](CO)C(N)=O)[C@@H](C)CC)C(C)C
On to B3, for which the “EC50 hGLP-1 R [pM]” value in the experiment with human GLP-1 receptor [3] was found to be 1.4 pM. In addition, in the experiment with human GIP receptor [4], the “EC50 hGIP R [pM]” value was 0.9 pM. Also, the “EC50 hGLUC R [pM]” value with human glucagon receptor was 529000 pM.

B4: SEQ ID NO: 10 (peptide)
peptide: Y[Aib]EGTFTSDLSKLLEEEAVRLFIEWLKAGGPSSGAPPPS-NH2
modifications: N-terminus assumed
SMILES: CC[C@H](C)[C@H](NC(=O)[C@H](Cc1ccccc1)NC(=O)[C@H](CC(C)C)NC(=O)[C@H](CCCNC(=N)N)NC(=O)[C@@H](NC(=O)[C@H](C)NC(=O)[C@H](CCC(=O)O)NC(=O)[C@H](CCC(=O)O)NC(=O)[C@H](CCC(=O)O)NC(=O)[C@H](CC(C)C)NC(=O)[C@H](CC(C)C)NC(=O)[C@H](CCCCN)NC(=O)[C@H](CO)NC(=O)[C@H](CC(C)C)NC(=O)[C@H](CC(=O)O)NC(=O)[C@H](CO)NC(=O)[C@@H](NC(=O)[C@H](Cc1ccccc1)NC(=O)[C@@H](NC(=O)CNC(=O)[C@H](CCC(=O)O)NC(=O)C(C)(C)NC(=O)[C@@H](N)Cc1ccc(O)cc1)[C@@H](C)O)[C@@H](C)O)C(C)C)C(=O)N[C@@H](CCC(=O)O)C(=O)N[C@@H](Cc1c[nH]c2ccccc12)C(=O)N[C@@H](CC(C)C)C(=O)N[C@@H](CCCCN)C(=O)N[C@@H](C)C(=O)NCC(=O)NCC(=O)N1CCC[C@H]1C(=O)N[C@@H](CO)C(=O)N[C@@H](CO)C(=O)NCC(=O)N[C@@H](C)C(=O)N1CCC[C@H]1C(=O)N1CCC[C@H]1C(=O)N1CCC[C@H]1C(=O)N[C@@H](CO)C(N)=O
Turning to B4, the “EC50 hGLP-1 R [pM]” value in the experiment with human GLP-1 receptor [3] worked out at 1 pM. In the experiment with human GIP receptor [4], the “EC50 hGIP R [pM]” value was 1.3 pM. The “EC50 hGLUC R [pM]” value with human glucagon receptor was 137000 pM.
